Here are results for 17 molecules from US20260274985A1 (MYTHIC THERAPEUTICS, published 2026).

B1: MYT12373 (antibody, V domains shown)
VH: QVQLQQSGSELKKPGASVKVSCKASGYTFTNYGMNWVKQAPGQGLKWMGWINTYTGEPTYTDDFKGRFAFSLDTSVSTAYLQISSLKADDTAVYFCARGGFGSSYWYFDVWGQGSLVTVSS
VL: DIQLTQSPSSLSASVGDRVSITCKASQDVHIAVAWYQQKPGKAPKLLIYSASYRYTGVPDRFSGSGSGTDFTLTISSLQPEDFAVYYCHQHYHTPLTFGAGTKVEIK
notes: sacituzumab VL 30, 89, 93 -> H
B2: MYT12370 (antibody, V domains shown)
VH: QVQLQQSGSELKKPGASVKVSCKASGYTFTNYGMNWVKQAPGQGLKWMGWINTYTGEPTYTDDFKGRFAFSLDTSVSTAYLQISSLKADDTAVYFCARGGFGSSYWYFDVWGQGSLVTVSS
VL: DIQLTQSPSSLSASVGDRVSITCKASQDVHIAVAWYQQKPGKAPKLLIYSHSYRYTGVPDRFSGSGSGTDFTLTISSLQPEDFAVYYCQQHYHTPLTFGAGTKVEIK
notes: sacituzumab VL 30, 51, 93 -> H
B3: MYT11677 (antibody, V domains shown)
VH: QVQLVQSGAEVKKPGASVKVSCKASGYTFTTAGMQWVRQAPGQGLEWMGWINTHSGVPKYAEDFKGRVTISADTSTSTAYLQLSSLKSEDTAVYYCARSGFGSSYWYFDVWGQGTLVTVSS
VL: DIQMTQSPSSLSASVGDRVTITCHASQDVSTAVAWYQQKPGKAPKLLIYSASYRYTGVPSRFSGSGSGTDFTLTISSLQPEDFAVYYCQQHYITPLTFGQGTKLEIK
notes: IgG from supernatant; His at LCV position 24; also called datopotamab variant L1 01
B4: MYT11700 (antibody, V domains shown)
VH: QVQLVQSGAEVKKPGASVKVSCKASGYTFTTAGMQWVRQAPGQGLEWMGWINTHSGVPKYAEDFKGRVTISADTSTSTAYLQLSSLKSEDTAVYYCARSGFGSSYWYFDVWGQGTLVTVSS
VL: DIQMTQSPSSLSASVGDRVTITCKASQDVSTAVAWYQQKPGKAPKLLIYSASYRYTGVPSRFSGSGSGTDFTLTISSLQPEDFAVYYCQQHYIHPLTFGQGTKLEIK
notes: IgG from supernatant; His at LCV position 94; also called datopotamab variant L3 06
B5: MYT11684 (antibody, V domains shown)
VH: QVQLVQSGAEVKKPGASVKVSCKASGYTFTTAGMQWVRQAPGQGLEWMGWINTHSGVPKYAEDFKGRVTISADTSTSTAYLQLSSLKSEDTAVYYCARSGFGSSYWYFDVWGQGTLVTVSS
VL: DIQMTQSPSSLSASVGDRVTITCKASQDVSHAVAWYQQKPGKAPKLLIYSASYRYTGVPSRFSGSGSGTDFTLTISSLQPEDFAVYYCQQHYITPLTFGQGTKLEIK
notes: IgG from supernatant; His at LCV position 31; also called datopotamab variant L1 08
B6: MYT11683 (antibody, V domains shown)
VH: QVQLVQSGAEVKKPGASVKVSCKASGYTFTTAGMQWVRQAPGQGLEWMGWINTHSGVPKYAEDFKGRVTISADTSTSTAYLQLSSLKSEDTAVYYCARSGFGSSYWYFDVWGQGTLVTVSS
VL: DIQMTQSPSSLSASVGDRVTITCKASQDVHTAVAWYQQKPGKAPKLLIYSASYRYTGVPSRFSGSGSGTDFTLTISSLQPEDFAVYYCQQHYITPLTFGQGTKLEIK
notes: IgG from supernatant; His at LCV position 30; also called datopotamab variant L1 07
B7: MYT11695 (antibody, V domains shown)
VH: QVQLVQSGAEVKKPGASVKVSCKASGYTFTTAGMQWVRQAPGQGLEWMGWINTHSGVPKYAEDFKGRVTISADTSTSTAYLQLSSLKSEDTAVYYCARSGFGSSYWYFDVWGQGTLVTVSS
VL: DIQMTQSPSSLSASVGDRVTITCKASQDVSTAVAWYQQKPGKAPKLLIYSASYRYTGVPSRFSGSGSGTDFTLTISSLQPEDFAVYYCHQHYITPLTFGQGTKLEIK
notes: IgG from supernatant; His at LCV position 89; also called datopotamab variant L3 01
B8: MYT11686 (antibody, V domains shown)
VH: QVQLVQSGAEVKKPGASVKVSCKASGYTFTTAGMQWVRQAPGQGLEWMGWINTHSGVPKYAEDFKGRVTISADTSTSTAYLQLSSLKSEDTAVYYCARSGFGSSYWYFDVWGQGTLVTVSS
VL: DIQMTQSPSSLSASVGDRVTITCKASQDVSTAHAWYQQKPGKAPKLLIYSASYRYTGVPSRFSGSGSGTDFTLTISSLQPEDFAVYYCQQHYITPLTFGQGTKLEIK
notes: IgG from supernatant; His at LCV position 33; also called datopotamab variant L1 10
B9: MYT11696 (antibody, V domains shown)
VH: QVQLVQSGAEVKKPGASVKVSCKASGYTFTTAGMQWVRQAPGQGLEWMGWINTHSGVPKYAEDFKGRVTISADTSTSTAYLQLSSLKSEDTAVYYCARSGFGSSYWYFDVWGQGTLVTVSS
VL: DIQMTQSPSSLSASVGDRVTITCKASQDVSTAVAWYQQKPGKAPKLLIYSASYRYTGVPSRFSGSGSGTDFTLTISSLQPEDFAVYYCQHHYITPLTFGQGTKLEIK
notes: IgG from supernatant; His at LCV position 90; also called datopotamab variant L3 02
B10: MYT11698 (antibody, V domains shown)
VH: QVQLVQSGAEVKKPGASVKVSCKASGYTFTTAGMQWVRQAPGQGLEWMGWINTHSGVPKYAEDFKGRVTISADTSTSTAYLQLSSLKSEDTAVYYCARSGFGSSYWYFDVWGQGTLVTVSS
VL: DIQMTQSPSSLSASVGDRVTITCKASQDVSTAVAWYQQKPGKAPKLLIYSASYRYTGVPSRFSGSGSGTDFTLTISSLQPEDFAVYYCQQHHITPLTFGQGTKLEIK
notes: IgG from supernatant; His at LCV position 92; also called datopotamab variant L3 04
B11: MYT11685 (antibody, V domains shown)
VH: QVQLVQSGAEVKKPGASVKVSCKASGYTFTTAGMQWVRQAPGQGLEWMGWINTHSGVPKYAEDFKGRVTISADTSTSTAYLQLSSLKSEDTAVYYCARSGFGSSYWYFDVWGQGTLVTVSS
VL: DIQMTQSPSSLSASVGDRVTITCKASQDVSTHVAWYQQKPGKAPKLLIYSASYRYTGVPSRFSGSGSGTDFTLTISSLQPEDFAVYYCQQHYITPLTFGQGTKLEIK
notes: IgG from supernatant; His at LCV position 32; also called datopotamab variant L1 09
B12: MYT11693 (antibody, V domains shown)
VH: QVQLVQSGAEVKKPGASVKVSCKASGYTFTTAGMQWVRQAPGQGLEWMGWINTHSGVPKYAEDFKGRVTISADTSTSTAYLQLSSLKSEDTAVYYCARSGFGSSYWYFDVWGQGTLVTVSS
VL: DIQMTQSPSSLSASVGDRVTITCKASQDVSTAVAWYQQKPGKAPKLLIYSASYRHTGVPSRFSGSGSGTDFTLTISSLQPEDFAVYYCQQHYITPLTFGQGTKLEIK
notes: IgG from supernatant; His at LCV position 55; also called datopotamab variant L2 06
B13: MYT11697 (antibody, V domains shown)
VH: QVQLVQSGAEVKKPGASVKVSCKASGYTFTTAGMQWVRQAPGQGLEWMGWINTHSGVPKYAEDFKGRVTISADTSTSTAYLQLSSLKSEDTAVYYCARSGFGSSYWYFDVWGQGTLVTVSS
VL: DIQMTQSPSSLSASVGDRVTITCKASQDVSTAVAWYQQKPGKAPKLLIYSASYRYTGVPSRFSGSGSGTDFTLTISSLQPEDFAVYYCQQAYITPLTFGQGTKLEIK
notes: IgG from supernatant; Ala at LCV position 91 (starting residue His); also called datopotamab variant L3 03
B14: MYT11681 (antibody, V domains shown)
VH: QVQLVQSGAEVKKPGASVKVSCKASGYTFTTAGMQWVRQAPGQGLEWMGWINTHSGVPKYAEDFKGRVTISADTSTSTAYLQLSSLKSEDTAVYYCARSGFGSSYWYFDVWGQGTLVTVSS
VL: DIQMTQSPSSLSASVGDRVTITCKASQHVSTAVAWYQQKPGKAPKLLIYSASYRYTGVPSRFSGSGSGTDFTLTISSLQPEDFAVYYCQQHYITPLTFGQGTKLEIK
notes: IgG from supernatant; His at LCV position 28; also called datopotamab variant L1 05
B15: MYT11689 (antibody, V domains shown)
VH: QVQLVQSGAEVKKPGASVKVSCKASGYTFTTAGMQWVRQAPGQGLEWMGWINTHSGVPKYAEDFKGRVTISADTSTSTAYLQLSSLKSEDTAVYYCARSGFGSSYWYFDVWGQGTLVTVSS
VL: DIQMTQSPSSLSASVGDRVTITCKASQDVSTAVAWYQQKPGKAPKLLIYSHSYRYTGVPSRFSGSGSGTDFTLTISSLQPEDFAVYYCQQHYITPLTFGQGTKLEIK
notes: IgG from supernatant; His at LCV position 51; also called datopotamab variant L2 02
B16: MYT11694 (antibody, V domains shown)
VH: QVQLVQSGAEVKKPGASVKVSCKASGYTFTTAGMQWVRQAPGQGLEWMGWINTHSGVPKYAEDFKGRVTISADTSTSTAYLQLSSLKSEDTAVYYCARSGFGSSYWYFDVWGQGTLVTVSS
VL: DIQMTQSPSSLSASVGDRVTITCKASQDVSTAVAWYQQKPGKAPKLLIYSASYRYHGVPSRFSGSGSGTDFTLTISSLQPEDFAVYYCQQHYITPLTFGQGTKLEIK
notes: IgG from supernatant; His at LCV position 56; also called datopotamab variant L2 07
B17: MYT11692 (antibody, V domains shown)
VH: QVQLVQSGAEVKKPGASVKVSCKASGYTFTTAGMQWVRQAPGQGLEWMGWINTHSGVPKYAEDFKGRVTISADTSTSTAYLQLSSLKSEDTAVYYCARSGFGSSYWYFDVWGQGTLVTVSS
VL: DIQMTQSPSSLSASVGDRVTITCKASQDVSTAVAWYQQKPGKAPKLLIYSASYHYTGVPSRFSGSGSGTDFTLTISSLQPEDFAVYYCQQHYITPLTFGQGTKLEIK
notes: IgG from supernatant; His at LCV position 54; also called datopotamab variant L2 05

For one assay, the target named is T1, Human TROP2 Protein, His Tag (Acro Biosystems) (human, UniProt P09758 27-274).
T1 construct: not shown: His tag
T1 sequence (looked up): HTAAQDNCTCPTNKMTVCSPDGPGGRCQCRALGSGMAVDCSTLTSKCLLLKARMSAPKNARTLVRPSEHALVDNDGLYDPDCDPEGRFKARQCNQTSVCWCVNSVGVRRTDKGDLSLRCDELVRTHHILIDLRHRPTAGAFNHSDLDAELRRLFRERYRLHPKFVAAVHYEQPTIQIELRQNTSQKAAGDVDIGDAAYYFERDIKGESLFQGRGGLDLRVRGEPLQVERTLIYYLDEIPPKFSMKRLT
Description: BLI (Octet).
For B1, the binding result was “binds”.

B2: the binding result is recorded as “binds”.

Another assay deals with T2, Human TROP2 Protein, His Tag (human, UniProt P09758 27-274).
T2 construct: Bought protein; also called TACSTD2; not shown: His tag
T2 sequence (looked up): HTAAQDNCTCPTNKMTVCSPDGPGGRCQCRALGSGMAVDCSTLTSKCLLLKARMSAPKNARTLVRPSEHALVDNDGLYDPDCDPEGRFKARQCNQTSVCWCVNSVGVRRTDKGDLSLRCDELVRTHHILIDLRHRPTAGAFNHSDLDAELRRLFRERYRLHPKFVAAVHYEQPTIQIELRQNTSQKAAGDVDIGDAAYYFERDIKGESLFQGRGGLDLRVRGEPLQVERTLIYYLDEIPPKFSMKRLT
Description: BLI (Octet) [2/2]. The procedure: After allowing for four days of protein expression, cell culture supernatants were collected, quantified by SDS-PAGE analysis (DNS), and the pH dependence of the variant was evaluated using biolayer interferometry (BLI) on an Octet RED 96e instrument. Briefly, cell culture supernatants were diluted based on qualitative expression level of the variant determined by visual examination of SDS-PAGE gels, 5 μL of cell culture supernatant was diluted into 195 μL of 1×PBST, pH 7.4 for high expressors, 25 μL of cell culture supernatant was diluted into 175 μL of 1×PBST, pH 7.4 for medium expressors and 100 μL of cell culture supernatant was diluted into 100 μL of 1×PBST, pH 7.4 for low expressors for loading onto the sensor tips. The resulting diluted supernatants were then captured on an anti-human Fc sensor (Forte Bio). A baseline was established using 1×PBST (50 mM Potassium Phosphate Buffer+150 mM NaCl+0.05% Tween 20) pH 7.4, and the sensor was associated with 50 nM of TROP2 (Human TROP2 Protein, His Tag, Acro Biosystems) in 1×PBST pH 7.4 for 120 sec to generate an association curve. In the dissociation phase, the antibody-antigen complex on the sensor was exposed to 1×PBST pH 7.4 or pH 5.4, for 300 sec. Association and dissociation phase curves were examined for the starting ABPC antibody (with no substitutions) and each corresponding antibody variant at pH 5.4 and pH 7.4 to inform on two criteria: a) enhanced dissociation (i.e., higher koff values) at pH 5.4 due to histidine or alanine substitution compared to the starting ABPC, (with no substitutions), and b) reduced dissociation at pH 7.4 (i.e., lower koff values) compared to pH 5.4 in the antibody variant itself and with the starting ABPC (with no substitutions). […] It was also noted that while some mutations obliterated TROP2 binding, others were tolerated with little or n change in TROP2 binding kinetics.
Consider B3, for which the binding result is given as “binds”.

Turning to B4, the binding result is “binds”.

For the molecule B5, the binding result is “binds”.

Regarding B6, the binding result is “binds”.

Take B7: the binding result was “binds”.

On to B8, for which the binding result is reported as “binds”.

B9: the binding result is “binds”.

Turning to B10, the binding result is reported as “no binding (tested: 50 nM)”.

As for B11, the binding result is on record as “no binding (tested: 50 nM)”.

In the case of B12, the binding result was “binds”.

Regarding B13, the binding result was “binds”.

For B14, the binding result is on record as “binds”.

For the molecule B15, the binding result is on record as “binds”.

Turning to B16, the binding result is “binds”.

As to B17, the binding result is on record as “binds”.
